Data taken from patent US20120328625A1.

Columns and labels:
[1] = target: Shh-N in conditioned medium (human) (UniProt Q15465); test: cell-based or functional assay
[2] = target: full length human Shh expressed on the cell surface (human) (UniProt Q15465); test: cell-based or functional assay
[3] = target: full length human Shh expressed on the cell surface (human) (UniProt Q15465); test: flow cytometry, transfected against parental 293T cells
[4] = target: biotinylated human Shh (human) (UniProt Q15465); test: ELISA, biotin-Shh coated at 500 ng/ml on neutravidin; antibody 1 ug/ml
[5] = target: full length human Shh expressed on the cell surface (human) (UniProt Q15465); test: FMAT, antibody 10 µg/ml on 293T cells transiently expressing human Shh
[6] = target: full length human Shh expressed on the cell surface (human) (UniProt Q15465); test: flow cytometry, transfected against parental 293T cells; antibody 2 ug/ml
[7] = target: full length human Shh expressed on the cell surface (human) (UniProt Q15465); test: flow cytometry, transfected against parental 293T cells; antibody 0.2 ug/ml
[8] = target: full length human Shh expressed on the cell surface (human) (UniProt Q15465); test: flow cytometry, transfected against parental 293T cells; antibody 0.02 ug/ml
[9] = target: full length human Shh expressed on the cell surface (human) (UniProt Q15465); test: flow cytometry, antibody 2 µg/ml, 293T cells transiently expressing human Shh
[10] = target: full length human Shh expressed on the cell surface (human) (UniProt Q15465); test: flow cytometry, 293T cells transiently transfected with human Shh; antibody 2 ug/ml
[11] = target: full length human Shh expressed on the cell surface (human) (UniProt Q15465); test: flow cytometry, 293T cells transiently transfected with human Shh; antibody 0.2 ug/ml
[12] = target: full length human Shh expressed on the cell surface (human) (UniProt Q15465); test: flow cytometry, 293T cells transiently transfected with human Shh; antibody 0.02 ug/ml

## 5E1 (antibody)
[1]
  IC50, inhibition of osteoblast differentiation (alkaline phosphatase) of C3H10T1/2 cells: 2.9 nM

## huIgG2/4 (antibody)
[1]
  % Inhibition of Gli1 reporter, Conditioned Media N = 1, 20 µg/ml: 2%
  % Inhibition of Gli1 reporter, Conditioned Media N = 2, 20 µg/ml: 23%
[2]
  % Inhibition of Gli1 reporter, Co-Culture N = 1, 20 µg/ml: 18%
  % Inhibition of Gli1 reporter, Co-Culture N = 2, 20 µg/ml: 7%
  % Inhibition of Gli1 reporter, Co-Culture N = 3, 20 µg/ml: 2%

## rat anti-Shh antibody (cat# MAB4641, R&D Systems, Inc.)
[3]
  Ratio: 0.7
[4]
  OD: 4.81 OD
[5]
  FL1 X COUNT: 1.47e+06
[6]
  Ratio: 443
[7]
  Ratio: 106
[8]
  Ratio: 13.7
[9]
  X Geo Mean (Transients): 3
[10]
  X Geo Mean (Transients): 965
[11]
  X Geo Mean (Transients): 221
[12]
  X Geo Mean (Transients): 28.5
